How the values were obtained:
[1] = biological target: C-terminally c-myc tagged rIGFBP-5 (human IGFBP-5 followed by a c-myc and His tag, expressed in 293T cells), P24593
[2] = biological target: rIGFBP-3 (gift of D. Powell), P17936
[3] = biological target: rIGFBP-5 (gift of D. Andress), P24593
rIGFBP-5 (gift of D. Andress), P24593, sequence (P24593 21-272): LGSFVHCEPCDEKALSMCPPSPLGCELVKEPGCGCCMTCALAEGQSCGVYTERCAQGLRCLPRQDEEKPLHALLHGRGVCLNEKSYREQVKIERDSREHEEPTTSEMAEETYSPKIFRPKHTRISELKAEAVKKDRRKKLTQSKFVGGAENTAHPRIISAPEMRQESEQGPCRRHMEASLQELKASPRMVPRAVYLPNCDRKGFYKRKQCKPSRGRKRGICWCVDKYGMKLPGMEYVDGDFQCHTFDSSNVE

C-terminally c-myc tagged rIGFBP-5 (human IGFBP-5 followed by a c-myc and His tag, expressed in 293T cells), P24593, sequence (P24593 other isoform, or with tags, fused parts or gaps): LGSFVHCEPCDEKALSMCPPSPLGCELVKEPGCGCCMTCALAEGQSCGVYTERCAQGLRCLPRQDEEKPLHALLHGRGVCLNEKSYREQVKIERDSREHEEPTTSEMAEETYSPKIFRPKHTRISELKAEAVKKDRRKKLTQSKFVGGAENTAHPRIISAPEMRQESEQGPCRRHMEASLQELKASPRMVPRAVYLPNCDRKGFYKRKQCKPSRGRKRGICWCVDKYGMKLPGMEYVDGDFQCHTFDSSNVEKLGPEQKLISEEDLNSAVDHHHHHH
rIGFBP-3 (gift of D. Powell), P17936, sequence (P17936 28-291): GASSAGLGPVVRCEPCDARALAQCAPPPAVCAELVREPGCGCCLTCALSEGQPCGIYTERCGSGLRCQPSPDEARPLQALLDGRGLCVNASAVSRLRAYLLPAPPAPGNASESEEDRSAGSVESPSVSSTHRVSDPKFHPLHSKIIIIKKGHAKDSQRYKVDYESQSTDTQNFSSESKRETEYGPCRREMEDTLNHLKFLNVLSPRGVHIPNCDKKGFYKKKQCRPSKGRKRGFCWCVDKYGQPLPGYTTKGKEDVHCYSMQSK

| Protein | proteolytic activity, Western blotting using anti-c-myc [1] | proteolytic cleavage, ligand blotting with radiolabeled IGF-II [2] | proteolytic cleavage, ligand blotting with radiolabeled IGF-II [3] | proteolytic cleavage, SDS-PAGE and N-terminal sequence analysis [1] |
| --- | --- | --- | --- | --- |
| recombinant wild-type PAPP-A2 (pregnancy-associated plasma protein-A2), in medium of 293T cells transfected with pPA2 (protein) SPPEESNQNGGEGSYREAETFNSQVGLPILYFSGRRERLLLRPEVLAEIPREAFTVEAWVKPEGGQNNPAIIAGVFDNCSHTVSDKGWALGIRSGKDKGKRDARFFFSLCTDRVKKATILISHSRYQPGTWTHVAATYDGRHMALYVDGTQVASSLDQSGPLNSPFMASCRSLLLGGDSSEDGHYFRGHLGTLVFWSTALPQSHFQHSSQHSSGEEEATDLVLTASFEPVNTEWVPFRDEKYPRLEVLQGFEPEPEILSPLQPPLCGQTVCDNVELISQYNGYWPLRGEKVIRYQVVNICDDEGLNPIVSEEQIRLQHEALNEAFSRYNISWQLSVHQVHNSTLRHRVVLVNCEPSKIGNDHCDPECEHPLTGYDGGDCRLQGRCYSWNRRDGLCHVECNNMLNDFDDGDCCDPQVADVRKTCFDPDSPKRAYMSVKELKEALQLNSTHFLNIYFASSVREDLAGAATWPWDKDAVTHLGGIVLSPAYYGMPGHTDTMIHEVGHVLGLYHVFKGVSERESCNDPCKETVPSMETGDLCADTAPTPKSELCREPEPTSDTCGFTRFPGAPFTNYMSYTDDNCTDNFTPNQVARMHCYLDLVYQQWTESRKPTPIPIPPMVIGQTNKSLTIHWLPPISGVVYDRASGSLCGACTEDGTFRQYVHTASSRRVCDSSGYWTPEEAVGPPDVDQPCEPSLQAWSPEVHLYHMNMTVPCPTEGCSLELLFQHPVQADTLTLWVTSFFMESSQVLFDTEILLENKESVHLGPLDTFCDIPLTIKLHVDGKVSGVKVYTFDERIEIDAALLTSQPHSPLCSGCRPVRYQVLRDPPFASGLPVVVTHSHRKFTDVEVTPGQMYQYQVLAEAGGELGEASPPLNHIHGAPYCGDGKVSERLGEECDDGDLVSGDGCSKVCELEEGFNCVGEPSLCYMYEGDGICEPFERKTSIVDCGIYTPKGYLDQWATRAYSSHEDKKKCPVSLVTGEPHSLICTSYHPDLPNHRPLTGWFPCVASENETQDDRSEQPEGSLKKEDEVWLKVCFNRPGEARAIFIFLTTDGLVPGEHQQPTVTLYLTDVRGSNHSLGTYGLSCQHNPLIINVTHHQNVLFHHTTSVLLNFSSPRVGISAVALRTSSRIGLSAPSNCISEDEGQNHQGQSCIHRPCGKQDSCPSLLLDHADVVNCTSIGPGLMKCAITCQRGFALQASSGQYIRPMQKEILLTCSSGHWDQNVSCLPVDCGVPDPSLVNYANFSCSEGTKFLKRCSISCVPPAKLQGLSPWLTCLEDGLWSLPEVYCKLECDAPPIILNANLLLPHCLQDNHDVGTICKYECKPGYYVAESAEGKVRNKLLKIQCLEGGIWEQGSCIPVVCEPPPPVFEGMYECTNGFSLDSQCVLNCNQEREKLPILCTKEGLWTQEFKLCENLQGECPPPPSELNSVEYKCEQGYGIGAVCSPLCVIPPSDPVMLPENITADTLEHWMEPVKVQSIVCTGRRQWHPDPVLVHCIQSCEPFQADGWCDTINNRAYCHYDGGDCCSSTLSSKKVIPFAADCDLDECTCRDPKAEENQ | In the absence of inhibitors, wild-type PAPP-A2 degraded all rIGFBP-5 (lane 3) | IGFBP-3 was partially degraded | Of the six binding proteins, IGFBP-5 showed complete cleavage | – |
| purified PAPP-A2 (protein) SPPEESNQNGGEGSYREAETFNSQVGLPILYFSGRRERLLLRPEVLAEIPREAFTVEAWVKPEGGQNNPAIIAGVFDNCSHTVSDKGWALGIRSGKDKGKRDARFFFSLCTDRVKKATILISHSRYQPGTWTHVAATYDGRHMALYVDGTQVASSLDQSGPLNSPFMASCRSLLLGGDSSEDGHYFRGHLGTLVFWSTALPQSHFQHSSQHSSGEEEATDLVLTASFEPVNTEWVPFRDEKYPRLEVLQGFEPEPEILSPLQPPLCGQTVCDNVELISQYNGYWPLRGEKVIRYQVVNICDDEGLNPIVSEEQIRLQHEALNEAFSRYNISWQLSVHQVHNSTLRHRVVLVNCEPSKIGNDHCDPECEHPLTGYDGGDCRLQGRCYSWNRRDGLCHVECNNMLNDFDDGDCCDPQVADVRKTCFDPDSPKRAYMSVKELKEALQLNSTHFLNIYFASSVREDLAGAATWPWDKDAVTHLGGIVLSPAYYGMPGHTDTMIHEVGHVLGLYHVFKGVSERESCNDPCKETVPSMETGDLCADTAPTPKSELCREPEPTSDTCGFTRFPGAPFTNYMSYTDDNCTDNFTPNQVARMHCYLDLVYQQWTESRKPTPIPIPPMVIGQTNKSLTIHWLPPISGVVYDRASGSLCGACTEDGTFRQYVHTASSRRVCDSSGYWTPEEAVGPPDVDQPCEPSLQAWSPEVHLYHMNMTVPCPTEGCSLELLFQHPVQADTLTLWVTSFFMESSQVLFDTEILLENKESVHLGPLDTFCDIPLTIKLHVDGKVSGVKVYTFDERIEIDAALLTSQPHSPLCSGCRPVRYQVLRDPPFASGLPVVVTHSHRKFTDVEVTPGQMYQYQVLAEAGGELGEASPPLNHIHGAPYCGDGKVSERLGEECDDGDLVSGDGCSKVCELEEGFNCVGEPSLCYMYEGDGICEPFERKTSIVDCGIYTPKGYLDQWATRAYSSHEDKKKCPVSLVTGEPHSLICTSYHPDLPNHRPLTGWFPCVASENETQDDRSEQPEGSLKKEDEVWLKVCFNRPGEARAIFIFLTTDGLVPGEHQQPTVTLYLTDVRGSNHSLGTYGLSCQHNPLIINVTHHQNVLFHHTTSVLLNFSSPRVGISAVALRTSSRIGLSAPSNCISEDEGQNHQGQSCIHRPCGKQDSCPSLLLDHADVVNCTSIGPGLMKCAITCQRGFALQASSGQYIRPMQKEILLTCSSGHWDQNVSCLPVDCGVPDPSLVNYANFSCSEGTKFLKRCSISCVPPAKLQGLSPWLTCLEDGLWSLPEVYCKLECDAPPIILNANLLLPHCLQDNHDVGTICKYECKPGYYVAESAEGKVRNKLLKIQCLEGGIWEQGSCIPVVCEPPPPVFEGMYECTNGFSLDSQCVLNCNQEREKLPILCTKEGLWTQEFKLCENLQGECPPPPSELNSVEYKCEQGYGIGAVCSPLCVIPPSDPVMLPENITADTLEHWMEPVKVQSIVCTGRRQWHPDPVLVHCIQSCEPFQADGWCDTINNRAYCHYDGGDCCSSTLSSKKVIPFAADCDLDECTCRDPKAEENQ | – | – | – | PAPP-A2 cleaves IGFBP-5 at one site, between Ser-143 and Lys-144 |
